The term Km denotes the concentration of substrate that gives half-maximal velocity.

Our source for the Km values is patent US20240247301A1, “DIAGNOSTIC ASSAY FOR CLASSIC INBORN GALACTOSEMIA” (Ohio State Innovation Foundation, priority 2022, published 2024).

For the series, the system named is O=P(O)(O)O[C@H]1O[C@H](CO)[C@@H](O)[C@H](O)[C@H]1O. Nature of the series: YidA phosphatase activity (malachite green), dephosphorylation of Glc-1-P. Format: biochemical, Salmonella typhimurium. The text has this: The sugar phosphate phosphatase produced from an engineered cell can be identical to a naturally occurring one, such as YidA or YihX, but placed within a cell in which it is not naturally produced. Examples of this approach are given throughout. The sequence for YidA from Salmonella typhimurium can be found, for example, in NC_492731.1. This sequence corresponds to SEQ ID NO: 1. The gene ID is 1255358. The sequence for YihX from Salmonella typhimurium can be found, for example, in NC_462906.1. This corresponds to SEQ ID NO: 2. The gene ID is 1255552. In one example, genes encoding these proteins can be placed within a cell in which it is not naturally occurring.
Nearly homogeneous recombinant Salmonella YidA by overexpressing it in E. coli SixPack cells were obtained (Lipinszki et al. 2018) (FIG. 3A). N-terminal fusions with a small ubiquitin-like modifier (SUMO) domain were engineered to enhance solubility (Marblestone et al. 2006) and a His6 tag to facilitate affinity purification (FIG. 3A). […] Since YidA is a Mg^2+-dependent phosphatase, its activity with Glc-1-P in the presence of 0-5 mM MgCl2 was first tested and determined that 3 mM MgCl2 was optimal (FIG. 5). […]

Several values for one entry are separate records, joined by “and”; a condition that tells them apart may be missing. Identical values can stand only once.

As to “Salmonella typhimurium YidA, recombinant wild type, SEQ ID NO: 1 (Salmonella enterica subsp. enterica serovar Typhimurium str. LT2)”, the Km runs as follows: (other: mean ± SE of two independent trials, pH 8.0) 1340 ± 20 µM and 1350 ± 10 µM; (other: single trials, ± curve-fit error, pH 8, 37° C., 3 mM MgCl2, 37.0 °C) 1340 ± 300 µM and 1350 ± 300 µM.
